Laboratory results from article PMC5462531.

How the values were obtained:
[1] = biological target: SBC, trimeric complex of SOCS2, Elongin B and Elongin C (wild type) (UniProt O14508); assay: ITC; Cul5NTD titrated into VBC or SBC proteins (Figure 7D: 200 μM into 20 μM, 303 K); 100 mM Bis tris propane pH 8.0, 50 mM NaCl, 2 mM TCEP; one-set-of-sites model
[2] = biological target: S^KSDBC, SBC with the SOCS2 triple mutation Q164K, R186S, Y190D (UniProt O14508); assay: as above
[3] = biological target: V^QRYBC, VBC with the pVHL triple mutation K159Q, S183R, D187Y (human) (UniProt P40337); assay: as above
[4] = biological target: Rbx1-Cul2, dimeric complex of full-length Rbx1 and full-length Cullin-2 (wild type) (human) (UniProt Q13617); assay: ITC; VBC or SBC proteins (200 μM) titrated into Rbx1-Cul2 (20 μM), 303 K; 100 mM Bis tris propane pH 8.0, 50 mM NaCl, 2 mM TCEP; one-set-of-sites model
Sequence of Rbx1-Cul2, dimeric complex of full-length Rbx1 and full-length Cullin-2 (wild type) (human) (Q13617 whole entry, chain 1 of 2): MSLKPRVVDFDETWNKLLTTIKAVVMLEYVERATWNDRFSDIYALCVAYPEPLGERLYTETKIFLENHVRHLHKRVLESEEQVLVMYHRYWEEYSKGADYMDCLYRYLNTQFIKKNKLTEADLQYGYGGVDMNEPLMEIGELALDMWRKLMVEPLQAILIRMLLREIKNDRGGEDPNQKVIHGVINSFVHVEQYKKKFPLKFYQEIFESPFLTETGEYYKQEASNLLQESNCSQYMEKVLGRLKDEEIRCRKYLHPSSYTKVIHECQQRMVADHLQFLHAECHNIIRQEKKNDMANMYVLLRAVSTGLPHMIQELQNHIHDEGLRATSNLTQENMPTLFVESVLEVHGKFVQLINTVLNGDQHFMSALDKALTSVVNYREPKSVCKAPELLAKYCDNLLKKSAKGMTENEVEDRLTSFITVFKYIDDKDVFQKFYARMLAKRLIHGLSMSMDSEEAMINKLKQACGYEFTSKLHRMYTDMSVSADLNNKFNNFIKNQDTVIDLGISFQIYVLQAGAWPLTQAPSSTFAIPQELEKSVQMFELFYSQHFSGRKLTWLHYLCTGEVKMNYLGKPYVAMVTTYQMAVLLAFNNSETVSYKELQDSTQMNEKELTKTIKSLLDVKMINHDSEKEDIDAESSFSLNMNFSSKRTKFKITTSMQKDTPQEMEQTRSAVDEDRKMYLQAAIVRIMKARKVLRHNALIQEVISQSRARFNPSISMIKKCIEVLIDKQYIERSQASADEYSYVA
Sequence of Rbx1-Cul2, dimeric complex of full-length Rbx1 and full-length Cullin-2 (wild type) (human) (P62877 whole entry, chain 2 of 2, further chain): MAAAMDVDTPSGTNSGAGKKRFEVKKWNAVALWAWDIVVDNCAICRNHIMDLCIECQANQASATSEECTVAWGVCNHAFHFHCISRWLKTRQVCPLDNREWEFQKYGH

Sequence of Cul5NTD, N-terminal domain of Cullin-5 (residues 1-386) (Q93034 1-386): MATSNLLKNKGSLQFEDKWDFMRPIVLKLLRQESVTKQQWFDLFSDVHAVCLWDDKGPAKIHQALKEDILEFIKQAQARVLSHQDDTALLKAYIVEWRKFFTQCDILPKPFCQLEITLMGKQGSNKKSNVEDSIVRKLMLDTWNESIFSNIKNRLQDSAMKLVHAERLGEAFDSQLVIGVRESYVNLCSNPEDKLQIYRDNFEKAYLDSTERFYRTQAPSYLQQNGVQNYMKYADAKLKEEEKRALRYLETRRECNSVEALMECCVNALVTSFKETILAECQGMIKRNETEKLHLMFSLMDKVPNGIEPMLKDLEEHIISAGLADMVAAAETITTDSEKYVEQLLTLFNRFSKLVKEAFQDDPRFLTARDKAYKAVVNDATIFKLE

## Cul5NTD, N-terminal domain of Cullin-5 (residues 1-386) (from UniProt Q93034 1-386) (domain or fragment)
[1]
  Kd: 10 nM
[2]
  Kd: 250 nM
[3]
  Kd: 2900 nM

## S^KSDBC, SBC with the SOCS2 triple mutation Q164K, R186S, Y190D (from UniProt O14508 32-198; Q15370 1-104; Q15369 17-112) (complex; other documents disagree on this pair)
[4]
  Kd: 2500 nM
